Source: patent publication US7217570B2, “Organotypic intestinal culture and methods of use thereof” (The Wistar Institute of Anatomy and Biology, priority 2001, dated 2007)

System: enteric epithelial cells
Test: Growth factor modulation of organotypic culture in reduced or modified media (Example 2)
Assay type: cell-based, human
Conditions: growth factor added individually to base medium (MCDB 201/L15, transferrin, antibiotics)
Description: To determine the role of growth factors on proliferation of colonic epithelial cells, this growth medium was modified by changing combinations of growth factors and deleting serum. Keratinocyte growth factor (KGF, R&D Systems) at 20 ng/ml was also tested as part of 23 growth factor combinations. Total relative cell numbers of a specific type were counted as an average of all nuclei counts from a minimum of 3 randomly selected cross-sections of a reconstruct. Goblet cells were counted based on their typical morphology and positive Alcian staining in at least 3 randomly selected slides. Proliferation rates in % were established by counting the number of BrdU or Ki-67-positive nuclei per total epithelial cell nuclei of section. Apoptotic cells were counted in H&E-stained sections (Vagunda, V. et al. 2000 Anal. Quant. Cytol. Histol., 22:307–310). Apoptotic bodies and nuclei were determined according to the size and numbers of the fragments. Apoptosis was calculated as percentage of total nuclei per section (Kerr, J F. et al. 1972 Br. J. Cancer, 26:239–257) To define the role of critical growth factors supporting growth and differentiation of the enteric epithelial cells, an organotypic culture, such as that described in Example 1, was grown in medium in which the number of supplements was reduced. […]

B1: Keratinocyte growth factor (protein, UniProt P21781 32-194, looked up)
Fibroblast growth factor 7: CNDMTPEQMATNVNCSSPERHTRSYDYMEGGDIRVRRLFCRTQWYLRIDKRGKVKGTQEMKNNYNIMEIRTVAVGIVAIKGVESEFYLAMNKEGKLYAKKECNEDCNFKELILENHYNTYASAKWTHNGGEMFVALNQKGIPVRGKKTKKEQKTAHFLPMAIT
notes: Keratinocyte growth factor (R&D Systems) at 20 ng/ml
  epithelial cell proliferation: not supported

B2: epidermal growth factor (protein, UniProt P01133 23-1207, looked up)
Pro-epidermal growth factor: PQHWSCPEGTLAGNGNSTCVGPAPFLIFSHGNSIFRIDTEGTNYEQLVVDAGVSVIMDFHYNEKRIYWVDLERQLLQRVFLNGSRQERVCNIEKNVSGMAINWINEEVIWSNQQEGIITVTDMKGNNSHILLSALKYPANVAVDPVERFIFWSSEVAGSLYRADLDGVGVKALLETSEKITAVSLDVLDKRLFWIQYNREGSNSLICSCDYDGGSVHISKHPTQHNLFAMSLFGDRIFYSTWKMKTIWIANKHTGKDMVRINLHSSFVPLGELKVVHPLAQPKAEDDTWEPEQKLCKLRKGNCSSTVCGQDLQSHLCMCAEGYALSRDRKYCEDVNECAFWNHGCTLGCKNTPGSYYCTCPVGFVLLPDGKRCHQLVSCPRNVSECSHDCVLTSEGPLCFCPEGSVLERDGKTCSGCSSPDNGGCSQLCVPLSPVSWECDCFPGYDLQLDEKSCAASGPQPFLLFANSQDIRHMHFDGTDYGTLLSQQMGMVYALDHDPVENKIYFAHTALKWIERANMDGSQRERLIEEGVDVPEGLAVDWIGRRFYWTDRGKSLIGRSDLNGKRSKIITKENISQPRGIAVHPMAKRLFWTDTGINPRIESSSLQGLGRLVIASSDLIWPSGITIDFLTDKLYWCDAKQSVIEMANLDGSKRRRLTQNDVGHPFAVAVFEDYVWFSDWAMPSVMRVNKRTGKDRVRLQGSMLKPSSLVVVHPLAKPGADPCLYQNGGCEHICKKRLGTAWCSCREGFMKASDGKTCLALDGHQLLAGGEVDLKNQVTPLDILSKTRVSEDNITESQHMLVAEIMVSDQDDCAPVGCSMYARCISEGEDATCQCLKGFAGDGKLCSDIDECEMGVPVCPPASSKCINTEGGYVCRCSEGYQGDGIHCLDIDECQLGEHSCGENASCTNTEGGYTCMCAGRLSEPGLICPDSTPPPHLREDDHHYSVRNSDSECPLSHDGYCLHDGVCMYIEALDKYACNCVVGYIGERCQYRDLKWWELRHAGHGQQQKVIVVAVCVVVLVMLLLLSLWGAHYYRTQKLLSKNPKNPYEESSRDVRSRRPADTEDGMSSCPQPWFVVIKEHQDLKNGGQPVAGEDGQAADGSMQPTSWRQEPQLCGMGTEQGCWIPVSSDKGSCPQVMERSFHMPSYGTQTLEGGVEKPHSLLSANPLWQQRALDPPHQMELTQ
modifications: Pro-epidermal growth factor
notes: human recombinant epidermal growth factor (Sigma)
  epithelial cell proliferation: not supported
